Series [1] concerns the molecule itself. In words: cryo-EM structure.
Series [2] deals with the molecule itself. In words: cryo-EM structure. The source holds these as a separate data set.

Results on two proteins are retold here after paper PMC7544431 (Nature, 2020).

B1: human MICU2 (subunit of the purified uniplex) (natural protein, UniProt Q8IYU8 23-434, looked up)
chain: AVSRQAVRSPGPLAAAVAGAALAGAGAAWHHSRVSVAARDGSFTVSAQKNVEHGIIYIGKPSLRKQRFMQFSSLEHEGEYYMTPRDFLFSVMFEQMERKTSVKKLTKKDIEDTLSGIQTAGCGSTFFRDLGDKGLISYTEYLFLLTILTKPHSGFHVAFKMLDTDGNEMIEKREFFKLQKIISKQDDLMTVKTNETGYQEAIVKEPEINTTLQMRFFGKRGQRKLHYKEFRRFMENLQTEIQEMEFLQFSKGLSFMRKEDFAEWLLFFTNTENKDIYWKNVREKLSAGESISLDEFKSFCHFTTHLEDFAIAMQMFSLAHRPVRLAEFKRAVKVATGQELSNNILDTVFKIFDLDGDECLSHEEFLGVLKNRMHRGLWVPQHQSIQEYWKCVKKESIKGVKEVWKQAGKGLF
modifications: disulfide to MICU1 (C413 of MICU2 and C463 of MICU1 in range)
On to B1, for which the binding result in the series “cryo-EM structure [1]” was “binds”.

B2: human MCU (subunit of the purified uniplex) (natural protein, UniProt Q8NE86 51-351, looked up)
chain: VHQRIASWQNLGAVYCSTVVPSDDVTVVYQNGLPVISVRLPSRRERCQFTLKPISDSVGVFLRQLQEEDRGIDRVAIYSPDGVRVAASTGIDLLLLDDFKLVINDLTYHVRPPKRDLLSHENAATLNDVKTLVQQLYTTLCIEQHQLNKERELIERLEDLKEQLAPLEKVRIEISRKAEKRTTLVLWGGLAYMATQFGILARLTWWEYSWDIMEPVTYFITYGSAMAMYAYFVMTRQEYVYPEARDRQYLLFFHKGAKKSRFDLEKYNQLKDAIAQAEMDLKRLRDPLQVHLPLRQIGEKD
Regarding B2, in the series “cryo-EM structure [2]”, the stoichiometry N – broadly, a count of units in the complex or per binding partner – came out at 4.
